{"source": "paper PMC7585203", "about": "(2020)", "binders": {"B1": {"name": "FAM-LIG1(118–130)K126me2-PEG-CPP (peptide)", "peptide": "5FAM-IPKRRTARK(Me2)QLPK[PEG][dK][dK][dK][dR][dK][dV]-NH2", "modifications": "reading uncertain"}, "B2": {"name": "FAM-LIG1(118–130)K126me2 peptide (peptide)", "peptide": "{FAM}-IPKRRTARK(Me2)QLPK", "modifications": "not fully specified (C-terminus); printed as FAM-LIG1(118–130)K126me2 peptide"}}, "assay_in_all_cases": "FP", "key": {"[1]": {"target": "T1, UHRF1 full-length (a.a. 1–793), MBP fusion ( (printed UniProt entry is …, UniProt Q96T88 1-793))", "T1 chain": "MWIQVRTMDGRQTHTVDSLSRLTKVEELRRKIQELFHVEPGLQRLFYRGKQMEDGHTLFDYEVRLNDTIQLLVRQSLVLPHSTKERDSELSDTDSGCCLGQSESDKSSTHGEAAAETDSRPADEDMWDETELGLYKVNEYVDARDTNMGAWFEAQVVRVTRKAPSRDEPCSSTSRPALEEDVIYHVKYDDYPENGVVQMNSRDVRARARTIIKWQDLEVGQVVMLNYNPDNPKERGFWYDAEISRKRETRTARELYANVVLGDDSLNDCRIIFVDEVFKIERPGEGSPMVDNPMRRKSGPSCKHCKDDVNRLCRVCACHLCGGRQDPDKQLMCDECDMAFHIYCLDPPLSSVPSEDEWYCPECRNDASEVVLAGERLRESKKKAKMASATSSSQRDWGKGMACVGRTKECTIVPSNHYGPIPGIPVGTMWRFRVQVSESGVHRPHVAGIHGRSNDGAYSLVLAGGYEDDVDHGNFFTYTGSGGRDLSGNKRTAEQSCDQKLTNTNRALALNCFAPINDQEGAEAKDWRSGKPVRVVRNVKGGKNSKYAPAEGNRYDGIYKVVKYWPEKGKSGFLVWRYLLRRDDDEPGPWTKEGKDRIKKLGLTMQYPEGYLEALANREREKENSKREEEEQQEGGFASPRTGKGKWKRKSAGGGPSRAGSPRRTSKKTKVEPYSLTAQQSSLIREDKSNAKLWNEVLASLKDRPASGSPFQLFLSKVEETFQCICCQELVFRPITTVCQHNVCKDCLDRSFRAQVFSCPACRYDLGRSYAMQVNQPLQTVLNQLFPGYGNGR"}, "[2]": {"target": "T2, GST-tagged UHRF1 TTD-L2 (a.a. 125–301) ( (printed UniProt entry is …, UniProt Q96T88 125-301))", "T2 chain": "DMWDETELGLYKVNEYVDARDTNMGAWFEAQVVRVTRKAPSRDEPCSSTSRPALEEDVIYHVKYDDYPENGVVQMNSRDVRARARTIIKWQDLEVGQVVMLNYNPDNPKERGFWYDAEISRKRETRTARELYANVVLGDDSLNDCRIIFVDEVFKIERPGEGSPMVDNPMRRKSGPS"}, "[3]": {"target": "T3, GST-tagged UHRF1 TTD–PHD R295A/R296A ( (printed UniProt entry is …, UniProt Q96T88 125-364, R295A | R296A))", "T3 sequence": "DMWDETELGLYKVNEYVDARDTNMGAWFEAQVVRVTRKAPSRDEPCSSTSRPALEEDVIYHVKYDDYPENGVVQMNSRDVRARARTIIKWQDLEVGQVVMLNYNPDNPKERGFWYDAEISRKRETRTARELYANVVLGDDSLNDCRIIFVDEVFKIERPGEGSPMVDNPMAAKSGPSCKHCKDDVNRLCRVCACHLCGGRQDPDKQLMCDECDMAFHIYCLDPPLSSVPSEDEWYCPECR"}, "[4]": {"target": "T4, GST-tagged UHRF1 TTD–PHD (a.a. 125–364) ( (printed UniProt entry is …, UniProt Q96T88 125-364))", "T4 chain": "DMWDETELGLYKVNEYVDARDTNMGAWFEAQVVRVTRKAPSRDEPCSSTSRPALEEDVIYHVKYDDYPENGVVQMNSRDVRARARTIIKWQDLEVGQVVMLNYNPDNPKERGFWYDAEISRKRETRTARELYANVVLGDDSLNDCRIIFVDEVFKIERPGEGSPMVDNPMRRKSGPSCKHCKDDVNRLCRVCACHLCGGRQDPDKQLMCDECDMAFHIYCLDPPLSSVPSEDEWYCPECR"}, "[5]": {"target": "T5, GST-tagged UHRF1 TTD–PHD S298E ( (printed UniProt entry is …, UniProt Q96T88 125-364, S298E))", "T5 sequence": "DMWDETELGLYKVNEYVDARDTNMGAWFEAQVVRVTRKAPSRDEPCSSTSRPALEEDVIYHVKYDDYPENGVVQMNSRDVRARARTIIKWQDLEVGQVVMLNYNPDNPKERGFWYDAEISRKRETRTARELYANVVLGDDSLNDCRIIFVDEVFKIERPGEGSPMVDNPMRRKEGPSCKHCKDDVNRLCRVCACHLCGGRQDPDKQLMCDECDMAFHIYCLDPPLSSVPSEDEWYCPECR"}, "MPP8 chromo": {"target": "T6, MPP8 chromo (Homo sapiens)", "T6 chain": "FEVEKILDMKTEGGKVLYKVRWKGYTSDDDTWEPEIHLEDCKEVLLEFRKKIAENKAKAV"}, "[6]": {"target": "T7, GST-tagged UHRF1 tandem Tudor domain (TTD, a.a. 125–285) ( (printed UniProt entry is …, UniProt Q96T88 125-285))", "T7 chain": "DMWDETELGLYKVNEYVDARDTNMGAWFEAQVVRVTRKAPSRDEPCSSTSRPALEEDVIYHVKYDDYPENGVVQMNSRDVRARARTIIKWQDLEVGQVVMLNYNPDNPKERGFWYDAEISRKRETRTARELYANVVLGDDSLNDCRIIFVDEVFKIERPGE"}, "[7]": {"target": "T8, GST-tagged chromodomain Y-like protein isoform 2 (CDYL1b) chromodomain ( (printed UniProt entry is …))", "T8 chain": "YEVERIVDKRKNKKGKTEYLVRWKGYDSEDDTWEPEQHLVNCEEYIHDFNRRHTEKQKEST"}}, "note": "Where no end group is shown, it is not given here. [ ]: non-standard residue; d: D form. The star is where a group is joined. 5FAM = O=C1OC2(c3ccc(O)cc3Oc3cc(O)ccc32)c2ccc(C(=O)*)cc21; Me2 = dimethyl on lysine side chain; PEG = not defined here", "data": [{"binder": "B1", "values": [{"measurement": "Kd", "setting": "[1]", "result": 8, "unit": "nM"}]}, {"binder": "B2", "values": [{"measurement": "Kd", "setting": "[2]", "result": 10, "unit": "nM"}, {"measurement": "Kd", "setting": "[3]", "result": 8, "unit": "nM"}, {"measurement": "Kd", "setting": "[4]", "result": 10, "unit": "nM"}, {"measurement": "Kd", "setting": "[5]", "result": 10, "unit": "nM"}, {"measurement": "Kd", "setting": "MPP8 chromo", "result": 32000, "unit": "nM"}, {"measurement": "Kd", "setting": "[6]", "result": 40, "unit": "nM"}, {"measurement": "Kd", "setting": "[7]", "result": 6500, "unit": "nM"}]}]}
